In patent publication US8003609B2, “Method for ameliorating pain by modification of NMDA receptors through inhibition of Src” (The Hospital for Sick Children, priority 2004, dated 2011):

Target: T1, ND2.1-GST (Homo sapiens, UniProt P03891, A265T)
T1 construct: made in house; host or cells: bacteria
Experiment: in vitro binding of biotinylated Src peptides to ND2.1-GST (blot / dot blot)
Details: biotinylated peptide, streptavidin-HRP detection
Method: Src, Fyn, and ND2 recombinant proteins were prepared. The cDNAs encoding the SH3 and SH2 domains of mouse n-Src and Fyn were PCR subcloned, ligated in frame into pGEX4T-1 (Amersham Pharmacia Biotech, Baie d'Urfé, Québec), and sequenced. These plasmids, as well as plasmids encoding the unique domains of Src and Fyn in pGEX2T'6, were transformed into BL21 bacteria, and GST fusion proteins were purified by glutathione affinity chromatography. To create the ND2.1, ND2.2, and ND2.3 GST fusion proteins, cDNAs encoding amino acids 239-321 (ND2.1-GST; SEQ ID NO:7), amino acids 189-238 (ND2.2-GST; SEQ ID NO:11), and amino acids 1-188 (ND2.3-GST; SEQ ID NO:13) of human ND2 were PCR subcloned and ligated into pGEX4T-1 (the nucleotide sequence encoding ND2 is SEQ ID NO:8 and the amino acid sequence is SEQ ID NO:9; the nucleotide sequences encoding ND2.1; ND2.2 and ND2.3 are SEQ ID NOS:6, 10 and 12, respectively). Using PCR-based single nucleotide mutagenesis, all cDNAs encoding ND2 fusion proteins were corrected for differences between mitochondrial and nuclear codons to prevent premature translation termination and protein truncation. All constructs were then confirmed by sequencing. The plasmids were transformed into bacteria, and GST fusion proteins were purified by glutathione affinity chromatography.
Src40-58 and scrambled Src peptides were biotinylated by incubating with Sulfo-NHS-Biotin (Pierce Chemical Co., Rockford, Ill.) for 30 minutes at room temperature (SEQ ID NO:4, Src protein). […] Bound probe was then detected on film using an ECL kit.
To detect the binding of ND2.1-GST with Src peptides, the ND2.1-GST fusion protein was purified on glutathione SEPHAROSE. […] Bound probe was then detected on film using an ECL kit (Amersham Pharmacia Biotech, Baie d'Urfé, Québec).
Src40-58, Src40-49, Src49-58, scrambled Src40-58, TAT-Src40-49, and scrambled TAT-Src40-49 peptides were biotinylated by incubating with Sulfo-NHS-Biotin (Pierce Chemical Co., Rockford, Ill.) for 30 minutes at room temperature. […] Bound probe was then detected on film using an ECL kit.

T1 sequence (P03891 239-318 A265T): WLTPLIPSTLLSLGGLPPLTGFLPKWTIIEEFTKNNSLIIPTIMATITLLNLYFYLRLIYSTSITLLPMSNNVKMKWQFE

## Src40-58: peptide comprising amino acid residues 40-58 of SEQ ID NO:4 (Src) (PASADGHRGPSAAFAPAAA; listed as Homo sapiens)
  binding to ND2.1-GST: bind directly
